Test results reported in article PMC1636354 (Nucleic Acids Research, 2006).
Blank lines part the entries; values can stand above or below the binder they belong to.

Tests used:
Assay in all cases: pull-down
pull-down = molecular target: the molecule itself
[1] = molecular target: T1, human Rad54B protein (untagged, purified) (human, UniProt Q9Y620 1-910)
T1 sequence: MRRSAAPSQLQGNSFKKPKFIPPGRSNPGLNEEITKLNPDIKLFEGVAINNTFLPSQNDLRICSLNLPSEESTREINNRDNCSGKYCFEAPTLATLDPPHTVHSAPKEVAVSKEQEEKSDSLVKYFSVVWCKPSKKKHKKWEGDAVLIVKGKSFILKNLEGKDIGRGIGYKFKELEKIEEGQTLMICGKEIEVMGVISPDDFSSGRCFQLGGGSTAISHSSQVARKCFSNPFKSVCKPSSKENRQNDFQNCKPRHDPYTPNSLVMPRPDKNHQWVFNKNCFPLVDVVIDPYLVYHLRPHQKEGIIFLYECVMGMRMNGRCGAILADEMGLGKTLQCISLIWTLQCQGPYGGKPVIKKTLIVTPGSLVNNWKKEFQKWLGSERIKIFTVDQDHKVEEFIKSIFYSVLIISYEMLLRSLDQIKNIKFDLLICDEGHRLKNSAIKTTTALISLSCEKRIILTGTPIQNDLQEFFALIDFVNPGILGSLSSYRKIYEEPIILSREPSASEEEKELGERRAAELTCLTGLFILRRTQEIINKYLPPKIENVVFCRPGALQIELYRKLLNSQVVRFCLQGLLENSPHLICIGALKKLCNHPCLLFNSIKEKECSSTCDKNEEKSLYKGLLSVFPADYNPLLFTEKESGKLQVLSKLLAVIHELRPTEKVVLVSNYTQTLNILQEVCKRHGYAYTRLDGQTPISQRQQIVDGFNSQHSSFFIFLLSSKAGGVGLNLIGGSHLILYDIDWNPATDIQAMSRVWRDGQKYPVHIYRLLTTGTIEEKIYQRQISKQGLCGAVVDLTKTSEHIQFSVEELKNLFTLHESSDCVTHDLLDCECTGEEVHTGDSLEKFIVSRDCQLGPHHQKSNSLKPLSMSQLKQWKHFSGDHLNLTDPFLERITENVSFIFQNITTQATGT

Dmc1 = molecular target: T2, Dmc1 (human, UniProt Q14565 1-340)
T2 sequence: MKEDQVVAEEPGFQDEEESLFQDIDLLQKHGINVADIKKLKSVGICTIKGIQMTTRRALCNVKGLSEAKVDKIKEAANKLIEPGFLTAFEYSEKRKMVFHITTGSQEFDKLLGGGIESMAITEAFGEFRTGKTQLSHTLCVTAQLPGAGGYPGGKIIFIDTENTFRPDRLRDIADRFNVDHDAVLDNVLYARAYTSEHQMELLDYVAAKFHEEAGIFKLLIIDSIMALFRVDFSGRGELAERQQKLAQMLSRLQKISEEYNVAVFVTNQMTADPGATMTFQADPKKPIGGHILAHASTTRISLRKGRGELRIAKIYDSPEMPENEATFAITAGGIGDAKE

B1: human Dmc1 protein (purified) (natural protein)
chain: T2 sequence
binding result (pull-down): binds
binding result [1]: binds

B2: SAT-120 (ssDNA)
DNA: ATTTCTTCATTTCATGCTAGACAGAAGAATTCTCAGTAACTTCTTTGTGCTGTGTGTATTCAACTCACAGAGTGGAACGTCCCTTTGCACAGAGCAGATTTGAAACACTCTTTTTGTAGT
binding result (Dmc1): binds

Now from value to binder, other results behind:

binding result [1]: binds
B3: human Rad51 protein (natural protein)
chain: MAMQMQLEANADTSVEEESFGPQPISRLEQCGINANDVKKLEEAGFHTVEAVAYAPKKELINIKGISEAKADKILAEAAKLVPMGFTTATEFHQRRSEIIQITTGSKELDKLLQGGIETGSITEMFGEFRTGKTQICHTLAVTCQLPIDRGGGEGKAMYIDTEGTFRPERLLAVAERYGLSGSDVLDNVAYARAFNTDHQTQLLYQASAMMVESRYALLIVDSATALYRTDYSGRGELSARQMHLARFLRMLLRLADEFGVAVVITNQVVAQVDGAAMFAADPKKPIGGNIIAHASTTRLYLRKGRGETRICKIYDSPCLPEAEAMFAINADGVGDAKD

binding result [1]: binds
B4: Dmc1 mutant lacking 81 amino acid residues from the N-terminus (Dmc1 82-340) (domain or fragment)
chain: EPGFLTAFEYSEKRKMVFHITTGSQEFDKLLGGGIESMAITEAFGEFRTGKTQLSHTLCVTAQLPGAGGYPGGKIIFIDTENTFRPDRLRDIADRFNVDHDAVLDNVLYARAYTSEHQMELLDYVAAKFHEEAGIFKLLIIDSIMALFRVDFSGRGELAERQQKLAQMLSRLQKISEEYNVAVFVTNQMTADPGATMTFQADPKKPIGGHILAHASTTRISLRKGRGELRIAKIYDSPEMPENEATFAITAGGIGDAKE
binding result (pull-down): binds
